Reference: patent US20230399650
Changes are numbered by the printed parent chain.

Columns and labels:
[1] = system: VapBC hetero-octamer, VapB Q12A (VapBA12C) (Shigella sonnei); experiment: SPR; conditions: 25 C, 50 mM Tris pH 8.0, 150 mM NaCl; approximate
[2] = system: VapBC hetero-octamer, VapB Q12L (VapBL12C, CS14 allele) (Shigella sonnei); experiment: SPR; conditions: 25 C, 50 mM Tris pH 8.0, 150 mM NaCl; traces not at equilibrium; methods state chip duplex SH167 annealed with SH181 (SH181 printed is operator site 2 sequence)
[3] = system: T1, VapB^A12 (Shigella sonnei VapB, Q12A)
T1 sequence: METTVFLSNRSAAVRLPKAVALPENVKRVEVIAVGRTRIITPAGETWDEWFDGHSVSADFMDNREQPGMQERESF

[4] = system: T2, VapB^L12 (VapB of Shigella sonnei CS14, Q12L)
T2 sequence: T1 sequence with A12L

[5] = system: T3, VapB^Q12 (Shigella sonnei 53G wild-type VapB antitoxin)
T3 sequence: T1 sequence with A12Q

| Substance | binding signal (fold lower affinity than VapBQ12C) [1] | binding signal (fold lower affinity than VapBQ12C) [2] | degradation of VapB by Lon in the presence of long-chain polyphosphate [3] | degradation of VapB by Lon in the presence of operator DNA or control DNA [3] | degradation of VapB by Lon, in vitro proteolysis with and without ATP, SDS-PAGE [3] | degradation of VapB by Lon, in vitro proteolysis, SDS-PAGE [3] | degradation of VapB by Lon in the presence of long-chain polyphosphate [4] | degradation of VapB by Lon in the presence of operator DNA or control DNA [4] | degradation of VapB by Lon, in vitro proteolysis over four hours, SDS-PAGE [4] | degradation of VapB by Lon, in vitro proteolysis with and without ATP, SDS-PAGE [4] | degradation after 4 hours, in the presence of control DNA [5] | degradation after 4 hours, without DNA [5] | degradation of VapB by Lon in the presence of control DNA [5] | degradation of VapB by Lon in the presence of long-chain polyphosphate [5] | degradation of VapB by Lon in the presence of operator DNA [5] | degradation of VapB by Lon, in vitro proteolysis over four hours, SDS-PAGE [5] | degradation of VapB by Lon, in vitro proteolysis with and without ATP, SDS-PAGE [5] |
| --- | --- | --- | --- | --- | --- | --- | --- | --- | --- | --- | --- | --- | --- | --- | --- | --- | --- |
| ATCATAAACGTATATCCCTTTGACATATCCCG (double strand) [vapBC operator site 1, biotinylated for SPR (SH180 printed)] | 10 | 4 |  |  |  |  |  |  |  |  |  |  |  |  |  |  |  |
| Shigella Lon protease, hexameric (Lon6) |  |  | significantly enhanced Lon degradation of both VapB^L12 and VapB^A12 | neither operator DNA nor control DNA affect Lon degradation of VapB^L12 or VapB^A12 | VapB degradation by Lon protease is ATP dependent | after two hours we observed that VapB^A12 was degraded significantly more than VapB^L12 | significantly enhanced Lon degradation of both VapB^L12 and VapB^A12 | neither operator DNA nor control DNA affect Lon degradation of VapB^L12 or VapB^A12 | no significant difference in the degradation of VapB^Q12 and VapB^L12 by Lon protease over the course of assays | VapB degradation by Lon protease is ATP dependent | 31% vs 55% degradation after 4 hours | 31% vs 55% degradation after 4 hours | significant degradation of VapB^Q12 was observed within two hours | Polyphosphate significantly reduced Lon degradation of VapB^Q12 | virtually no degradation of VapB^Q12 over the course of assays | no significant difference in the degradation of VapB^Q12 and VapB^L12 by Lon protease over the course of assays | VapB degradation by Lon protease is ATP dependent |
